Measured values published in US20040254139, “Oligonucleotides antagonist for human tumor necrosis factor alpha (TNF-alpha)” (published 2004).

How the values were obtained:
[1] = target: T1, TNF-alpha (tumor necrosis factor alpha) (Homo sapiens, UniProt P01375 P01375:77-233); assay: ELONA; affinity and inhibition activity stated unchanged; conditions: chain copies: 3
[2] = target: T1, TNF-alpha (tumor necrosis factor alpha); assay: ELONA; affinity unchanged; still positive at 3 ng/ml; conditions: chain copies: 3

T1 sequence (P01375 77-233, one chain of several): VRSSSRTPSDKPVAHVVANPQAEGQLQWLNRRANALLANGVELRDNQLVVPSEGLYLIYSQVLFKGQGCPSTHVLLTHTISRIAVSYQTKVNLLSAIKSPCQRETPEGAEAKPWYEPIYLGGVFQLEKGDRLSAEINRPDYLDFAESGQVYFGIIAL

Binder | binding result [1] | binding result [2]
GCUUAGCAAACGCACCGCACAGGCCCGCGG (ssRNA, 2'-F and 2'-NH2 pyrimidines (printed 2-fluorin and 2-amido)) [truncated modified SEQ 20] | binds | –
CCUCAUAGACUACUGUUAAGCCUCGAGG (ssRNA, 2'-NH2 pyrimidines (printed 2-amido)) [truncated amino-modified SEQ 25] | – | binds
